The values below come from IntAct's records for PubMed 12692135.

The chains are these.
B1: Tumor protein 63 (Homo sapiens), Q9H3D4-1 (parent)
chain: MNFETSRCATLQYCPDPYIQRFVETPAHFSWKESYYRSTMSQSTQTNEFLSPEVFQHIWDFLEQPICSVQPIDLNFVDEPSEDGATNKIEISMDCIRMQDSDLSDPMWPQYTNLGLLNSMDQQIQNGSSSTSPYNTDHAQNSVTAPSPYAQPSSTFDALSPSPAIPSNTDYPGPHSFDVSFQQSSTAKSATWTYSTELKKLYCQIAKTCPIQIKVMTPPPQGAVIRAMPVYKKAEHVTEVVKRCPNHELSREFNEGQIAPPSHLIRVEGNSHAQYVEDPITGRQSVLVPYEPPQVGTEFTTVLYNFMCNSSCVGGMNRRPILIIVTLETRDGQVLGRRCFEARICACPGRDRKADEDSIRKQQVSDSTKNGDGTKRPFRQNTHGIQMTSIKKRRSPDDELLYLPVRGRETYEMLLKIKESLELMQYLPQHTIETYRQQQQQQHQHLLQKQTSIQSPSSYGNSSPPLNKMNSMNKLPSVSQLINPQQRNALTPTTIPDGMGANIPMMGTHMPMAGDMNGLSPTQALPPPLSMPSTSHCTPPPPYPTDCSIVSFLARLGCSSCLDYFTTQGLTTIYQIEHYSMDDLASLKIPEQFRHAIWKGILDHRQLHEFSSPSHLLRTPSSASTVSVGSSETRGERVIDAVRFTLRQTISFPPRDEWNDFNFDMDARRNKQQRIKEEGE
B2: Tumor protein 63 (Homo sapiens), Q9H3D4 (parent)
chain: B1 chain
partner: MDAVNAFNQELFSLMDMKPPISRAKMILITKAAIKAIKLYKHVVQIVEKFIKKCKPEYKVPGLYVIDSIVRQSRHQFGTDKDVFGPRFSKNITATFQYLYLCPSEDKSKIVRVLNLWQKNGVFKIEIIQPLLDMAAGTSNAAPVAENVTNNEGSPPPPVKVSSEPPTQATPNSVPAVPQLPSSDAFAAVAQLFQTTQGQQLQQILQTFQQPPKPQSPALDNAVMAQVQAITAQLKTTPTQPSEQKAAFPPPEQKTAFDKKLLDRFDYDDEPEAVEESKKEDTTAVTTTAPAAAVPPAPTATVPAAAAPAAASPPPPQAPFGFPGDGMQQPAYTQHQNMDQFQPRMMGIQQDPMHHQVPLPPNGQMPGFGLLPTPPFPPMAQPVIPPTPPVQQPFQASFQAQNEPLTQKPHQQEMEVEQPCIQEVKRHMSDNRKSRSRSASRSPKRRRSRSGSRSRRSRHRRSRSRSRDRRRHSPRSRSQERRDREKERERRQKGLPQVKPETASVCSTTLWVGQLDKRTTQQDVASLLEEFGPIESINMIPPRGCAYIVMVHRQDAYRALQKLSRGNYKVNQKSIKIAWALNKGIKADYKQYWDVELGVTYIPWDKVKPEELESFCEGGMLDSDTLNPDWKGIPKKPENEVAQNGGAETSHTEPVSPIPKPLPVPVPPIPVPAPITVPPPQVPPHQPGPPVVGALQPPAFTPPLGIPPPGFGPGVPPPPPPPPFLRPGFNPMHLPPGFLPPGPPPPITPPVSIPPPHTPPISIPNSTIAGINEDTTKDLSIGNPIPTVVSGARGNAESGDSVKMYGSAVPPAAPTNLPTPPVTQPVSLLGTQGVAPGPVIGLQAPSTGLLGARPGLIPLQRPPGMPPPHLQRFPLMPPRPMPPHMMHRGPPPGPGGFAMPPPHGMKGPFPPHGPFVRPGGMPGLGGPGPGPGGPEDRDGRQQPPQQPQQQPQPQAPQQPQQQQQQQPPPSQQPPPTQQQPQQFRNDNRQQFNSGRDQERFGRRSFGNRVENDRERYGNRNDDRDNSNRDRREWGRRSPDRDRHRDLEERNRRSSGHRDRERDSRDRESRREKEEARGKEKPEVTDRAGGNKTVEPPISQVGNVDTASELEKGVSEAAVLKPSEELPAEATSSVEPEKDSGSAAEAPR
B3: Tumor protein 63 (Homo sapiens), Q9H3D4-2 (parent)
chain: MLYLENNAQTQFSEPQYTNLGLLNSMDQQIQNGSSSTSPYNTDHAQNSVTAPSPYAQPSSTFDALSPSPAIPSNTDYPGPHSFDVSFQQSSTAKSATWTYSTELKKLYCQIAKTCPIQIKVMTPPPQGAVIRAMPVYKKAEHVTEVVKRCPNHELSREFNEGQIAPPSHLIRVEGNSHAQYVEDPITGRQSVLVPYEPPQVGTEFTTVLYNFMCNSSCVGGMNRRPILIIVTLETRDGQVLGRRCFEARICACPGRDRKADEDSIRKQQVSDSTKNGDGTKRPFRQNTHGIQMTSIKKRRSPDDELLYLPVRGRETYEMLLKIKESLELMQYLPQHTIETYRQQQQQQHQHLLQKQTSIQSPSSYGNSSPPLNKMNSMNKLPSVSQLINPQQRNALTPTTIPDGMGANIPMMGTHMPMAGDMNGLSPTQALPPPLSMPSTSHCTPPPPYPTDCSIVSFLARLGCSSCLDYFTTQGLTTIYQIEHYSMDDLASLKIPEQFRHAIWKGILDHRQLHEFSSPSHLLRTPSSASTVSVGSSETRGERVIDAVRFTLRQTISFPPRDEWNDFNFDMDARRNKQQRIKEEGE

In the first assay the parent is B1. Conditions: with roaa_human HNRNPAB.
Target sequence in this assay (Q99729 whole entry): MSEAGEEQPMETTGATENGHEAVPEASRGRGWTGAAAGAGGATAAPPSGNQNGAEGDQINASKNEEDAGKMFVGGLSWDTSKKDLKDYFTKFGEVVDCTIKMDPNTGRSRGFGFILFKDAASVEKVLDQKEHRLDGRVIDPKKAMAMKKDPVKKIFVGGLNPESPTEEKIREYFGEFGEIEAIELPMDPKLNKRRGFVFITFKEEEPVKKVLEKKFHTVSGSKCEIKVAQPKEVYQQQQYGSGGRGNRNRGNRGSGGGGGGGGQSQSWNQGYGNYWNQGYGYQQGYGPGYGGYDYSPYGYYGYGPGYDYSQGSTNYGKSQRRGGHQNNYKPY
Consider Q575L, for which the “effect of a mutation on the interaction” value was “disrupting interaction strength”.

Turning to G569V, the “effect of a mutation on the interaction” value is given as “disrupting interaction strength”.

Regarding C561V, the “effect of a mutation on the interaction” value was “disrupting interaction strength”.

Take I576T: the “effect of a mutation on the interaction” value is listed as “disrupting interaction strength”.

Regarding L553F, the “effect of a mutation on the interaction” value was “disrupting interaction strength”.

The next assay covers variants of B1. Conditions: with rack1_human RACK1, P63244.
L553F: the “effect of a mutation on the interaction” value is listed as “with no effect”.

The next assay covers variants of B1. As to conditions: with roaa_human HNRNPAB. The source holds these as a separate data set.
Target sequence in this assay (Q99729 whole entry): as above
As for L553F, the “effect of a mutation on the interaction” value is listed as “disrupting interaction strength”.

In the next assay the parent is B2. Conditions: with scaf4_human SCAF4, O95104.
With L553F, the “effect of a mutation on the interaction” value was “disrupting interaction strength”.

Variants of B3 are the subject of a further assay. Conditions: with roaa_human HNRNPAB.
Target sequence in this assay (Q99729 whole entry): as above
For the variant MLYLENNAQTQFSEPQYTNLGLLNSMDQQIQNGSSSTSPYNTDHAQNSVTAPSPYAQPSSTFDALSPSPAIPSNTDYPGPHSFDVSFQQSSTAKSATWTYSTELKKLYCQIAKTCPIQIKVMTPPPQGAVIRAMPVYKKAEHVTEVVKRCPNHELSREFNEGQIAPPSHLIRVEGNSHAQYVEDPITGRQSVLVPYEPPQVGTEFTTVLYNFMCNSSCVGGMNRRPILIIVTLETRDGQVLGRRCFEARICACPGRDRKADEDSIRKQQVSDSTKNGDGTKRPFRQNTHGIQMTSIKKRRSPDDELLYLPVRGRETYEMLLKIKESLELMQYLPQHTIETYRQQQQQQHQHLLQKQTSIQSPSSYGNSSPPLNKMNSMNKLPSVSQLINPQQRNALTPTTIPDGMGANIPMMGTHMPMAGDMNGLSPTQALPPPLSMPSTSHCTPPPPYPTDCSIVSFLARLGCSSCLDYFTTQGLTTIYLIEHYSMDDLASLKIPEQFRHAIWKGILDHRQLHEFSSPSHLLRTPSSASTVSVGSSETRGERVIDAVRFTLRQTISFPPRDEWNDFNFDMDARRNKQQRIKEEGE [Q481L], the “effect of a mutation on the interaction” value is given as “disrupting interaction strength”.

As to MLYLENNAQTQFSEPQYTNLGLLNSMDQQIQNGSSSTSPYNTDHAQNSVTAPSPYAQPSSTFDALSPSPAIPSNTDYPGPHSFDVSFQQSSTAKSATWTYSTELKKLYCQIAKTCPIQIKVMTPPPQGAVIRAMPVYKKAEHVTEVVKRCPNHELSREFNEGQIAPPSHLIRVEGNSHAQYVEDPITGRQSVLVPYEPPQVGTEFTTVLYNFMCNSSCVGGMNRRPILIIVTLETRDGQVLGRRCFEARICACPGRDRKADEDSIRKQQVSDSTKNGDGTKRPFRQNTHGIQMTSIKKRRSPDDELLYLPVRGRETYEMLLKIKESLELMQYLPQHTIETYRQQQQQQHQHLLQKQTSIQSPSSYGNSSPPLNKMNSMNKLPSVSQLINPQQRNALTPTTIPDGMGANIPMMGTHMPMAGDMNGLSPTQALPPPLSMPSTSHCTPPPPYPTDCSIVSFLARLGCSSCLDYFTTQVLTTIYQIEHYSMDDLASLKIPEQFRHAIWKGILDHRQLHEFSSPSHLLRTPSSASTVSVGSSETRGERVIDAVRFTLRQTISFPPRDEWNDFNFDMDARRNKQQRIKEEGE [G475V], the “effect of a mutation on the interaction” value is listed as “disrupting interaction strength”.

In the case of MLYLENNAQTQFSEPQYTNLGLLNSMDQQIQNGSSSTSPYNTDHAQNSVTAPSPYAQPSSTFDALSPSPAIPSNTDYPGPHSFDVSFQQSSTAKSATWTYSTELKKLYCQIAKTCPIQIKVMTPPPQGAVIRAMPVYKKAEHVTEVVKRCPNHELSREFNEGQIAPPSHLIRVEGNSHAQYVEDPITGRQSVLVPYEPPQVGTEFTTVLYNFMCNSSCVGGMNRRPILIIVTLETRDGQVLGRRCFEARICACPGRDRKADEDSIRKQQVSDSTKNGDGTKRPFRQNTHGIQMTSIKKRRSPDDELLYLPVRGRETYEMLLKIKESLELMQYLPQHTIETYRQQQQQQHQHLLQKQTSIQSPSSYGNSSPPLNKMNSMNKLPSVSQLINPQQRNALTPTTIPDGMGANIPMMGTHMPMAGDMNGLSPTQALPPPLSMPSTSHCTPPPPYPTDCSIVSFLARLGCSSVLDYFTTQGLTTIYQIEHYSMDDLASLKIPEQFRHAIWKGILDHRQLHEFSSPSHLLRTPSSASTVSVGSSETRGERVIDAVRFTLRQTISFPPRDEWNDFNFDMDARRNKQQRIKEEGE [C467V], the “effect of a mutation on the interaction” value is reported as “disrupting interaction strength”.

For MLYLENNAQTQFSEPQYTNLGLLNSMDQQIQNGSSSTSPYNTDHAQNSVTAPSPYAQPSSTFDALSPSPAIPSNTDYPGPHSFDVSFQQSSTAKSATWTYSTELKKLYCQIAKTCPIQIKVMTPPPQGAVIRAMPVYKKAEHVTEVVKRCPNHELSREFNEGQIAPPSHLIRVEGNSHAQYVEDPITGRQSVLVPYEPPQVGTEFTTVLYNFMCNSSCVGGMNRRPILIIVTLETRDGQVLGRRCFEARICACPGRDRKADEDSIRKQQVSDSTKNGDGTKRPFRQNTHGIQMTSIKKRRSPDDELLYLPVRGRETYEMLLKIKESLELMQYLPQHTIETYRQQQQQQHQHLLQKQTSIQSPSSYGNSSPPLNKMNSMNKLPSVSQLINPQQRNALTPTTIPDGMGANIPMMGTHMPMAGDMNGLSPTQALPPPLSMPSTSHCTPPPPYPTDCSIVSFLARLGCSSCLDYFTTQGLTTIYQTEHYSMDDLASLKIPEQFRHAIWKGILDHRQLHEFSSPSHLLRTPSSASTVSVGSSETRGERVIDAVRFTLRQTISFPPRDEWNDFNFDMDARRNKQQRIKEEGE [I482T], the “effect of a mutation on the interaction” value is “disrupting interaction strength”.

A further assay covers variants of B3. Conditions: with roaa_human HNRNPAB. This is another data set of the same source.
Target sequence in this assay (Q99729 whole entry): as the sequence (Q99729 whole entry) above
Turning to MLYLENNAQTQFSEPQYTNLGLLNSMDQQIQNGSSSTSPYNTDHAQNSVTAPSPYAQPSSTFDALSPSPAIPSNTDYPGPHSFDVSFQQSSTAKSATWTYSTELKKLYCQIAKTCPIQIKVMTPPPQGAVIRAMPVYKKAEHVTEVVKRCPNHELSREFNEGQIAPPSHLIRVEGNSHAQYVEDPITGRQSVLVPYEPPQVGTEFTTVLYNFMCNSSCVGGMNRRPILIIVTLETRDGQVLGRRCFEARICACPGRDRKADEDSIRKQQVSDSTKNGDGTKRPFRQNTHGIQMTSIKKRRSPDDELLYLPVRGRETYEMLLKIKESLELMQYLPQHTIETYRQQQQQQHQHLLQKQTSIQSPSSYGNSSPPLNKMNSMNKLPSVSQLINPQQRNALTPTTIPDGMGANIPMMGTHMPMAGDMNGLSPTQALPPPLSMPSTSHCTPPPPYPTDCSIVSFFARLGCSSCLDYFTTQGLTTIYQIEHYSMDDLASLKIPEQFRHAIWKGILDHRQLHEFSSPSHLLRTPSSASTVSVGSSETRGERVIDAVRFTLRQTISFPPRDEWNDFNFDMDARRNKQQRIKEEGE [L459F], the “effect of a mutation on the interaction” value is listed as “disrupting interaction strength”.
